Measurements taken from patent US20250073302A1 (PURDUE RESEARCH FOUNDATION, published 2025).
Non-standard residues stand in square brackets, D forms with d. Bpa = N[C@@H](Cc1ccc(C(=O)c2ccccc2)cc1)C(=O)O; dBpa = N[C@H](Cc1ccc(C(=O)c2ccccc2)cc1)C(=O)O; dPhe(3,4-F2) = N[C@H](Cc1ccc(F)c(F)c1)C(=O)O; Phe(3-F) = N[C@@H](Cc1cccc(F)c1)C(=O)O; Phe(4-F) = N[C@@H](Cc1ccc(F)cc1)C(=O)O; dPhe(3-F) = N[C@H](Cc1cccc(F)c1)C(=O)O; dPhe(4-F) = N[C@H](Cc1ccc(F)cc1)C(=O)O; dPra = C#CC[C@@H](N)C(=O)O; Dap = NC[C@H](N)C(=O)O

Molecular target: 20S core particle (CP) proteasome
Experiment: cell-based or functional assay

Binder	TAS-1 (percent stimulation of 20S CP)
cyclo(T[dL]F[dY]R[dA]) (SMILES CC(C)C[C@H]1NC(=O)[C@H]([C@@H](C)O)NC(=O)[C@@H](C)NC(=O)[C@H](CCCNC(=N)N)NC(=O)[C@@H](Cc2ccc(O)cc2)NC(=O)[C@H](Cc2ccccc2)NC1=O) [CyPPS17]	203 % of DMSO
cyclo(T[dL]F[dBpa]R[dA]) (SMILES CC(C)C[C@H]1NC(=O)[C@H]([C@@H](C)O)NC(=O)[C@@H](C)NC(=O)[C@H](CCCNC(=N)N)NC(=O)[C@@H](Cc2ccc(C(=O)c3ccccc3)cc2)NC(=O)[C@H](Cc2ccccc2)NC1=O) [CyPPS21]	278 % of DMSO
cyclo(T[dL][Phe(4-F)][dF]R[dA]) (SMILES CC(C)C[C@H]1NC(=O)[C@H]([C@@H](C)O)NC(=O)[C@@H](C)NC(=O)[C@H](CCCNC(=N)N)NC(=O)[C@@H](Cc2ccccc2)NC(=O)[C@H](Cc2ccc(F)cc2)NC1=O) [CyPPS15]	280 % of DMSO
cyclo(T[dA]F[dF]A[dR]) (SMILES C[C@@H]1NC(=O)[C@@H](Cc2ccccc2)NC(=O)[C@H](Cc2ccccc2)NC(=O)[C@@H](C)NC(=O)[C@H]([C@@H](C)O)NC(=O)[C@@H](CCCNC(=N)N)NC1=O) [CyPPS35]	259 % of DMSO
cyclo(T[dL]R[dF]R[dA]) (SMILES CC(C)C[C@H]1NC(=O)[C@H]([C@@H](C)O)NC(=O)[C@@H](C)NC(=O)[C@H](CCCNC(=N)N)NC(=O)[C@@H](Cc2ccccc2)NC(=O)[C@H](CCCNC(=N)N)NC1=O) [CyPPS30]	212 % of DMSO
cyclo(T[dL]F[dPhe(4-F)]R[dA]) (SMILES CC(C)C[C@H]1NC(=O)[C@H]([C@@H](C)O)NC(=O)[C@@H](C)NC(=O)[C@H](CCCNC(=N)N)NC(=O)[C@@H](Cc2ccc(F)cc2)NC(=O)[C@H](Cc2ccccc2)NC1=O) [CyPPS18]	246 % of DMSO
cyclo(T[dL]F[dF]A[dR]) (SMILES CC(C)C[C@H]1NC(=O)[C@H]([C@@H](C)O)NC(=O)[C@@H](CCCNC(=N)N)NC(=O)[C@H](C)NC(=O)[C@@H](Cc2ccccc2)NC(=O)[C@H](Cc2ccccc2)NC1=O) [CyPPS6]	305 % of DMSO
cyclo(K[dL]F[dF]R[dA]) (SMILES CC(C)C[C@H]1NC(=O)[C@H](CCCCN)NC(=O)[C@@H](C)NC(=O)[C@H](CCCNC(=N)N)NC(=O)[C@@H](Cc2ccccc2)NC(=O)[C@H](Cc2ccccc2)NC1=O) [CyPPS7]	226 % of DMSO
cyclo(TAF[dF]A[dR]) (SMILES C[C@@H]1NC(=O)[C@H]([C@@H](C)O)NC(=O)[C@@H](CCCNC(=N)N)NC(=O)[C@H](C)NC(=O)[C@@H](Cc2ccccc2)NC(=O)[C@H](Cc2ccccc2)NC1=O) [CyPPS34]	126 % of DMSO
cyclo(T[dI]F[dF]R[dA]) (SMILES CC[C@@H](C)[C@H]1NC(=O)[C@H]([C@@H](C)O)NC(=O)[C@@H](C)NC(=O)[C@H](CCCNC(=N)N)NC(=O)[C@@H](Cc2ccccc2)NC(=O)[C@H](Cc2ccccc2)NC1=O) [CyPPS12]	124 % of DMSO
cyclo(A[dL]F[dF]R[dA]) (SMILES CC(C)C[C@H]1NC(=O)[C@H](C)NC(=O)[C@@H](C)NC(=O)[C@H](CCCNC(=N)N)NC(=O)[C@@H](Cc2ccccc2)NC(=O)[C@H](Cc2ccccc2)NC1=O) [CyPPS2]	241 % of DMSO
cyclo(T[dL]A[dF]R[dA]) (SMILES CC(C)C[C@H]1NC(=O)[C@H]([C@@H](C)O)NC(=O)[C@@H](C)NC(=O)[C@H](CCCNC(=N)N)NC(=O)[C@@H](Cc2ccccc2)NC(=O)[C@H](C)NC1=O) [CyPPS4]	275 % of DMSO
cyclo(T[dL][Phe(3-F)][dF]R[dA]) (SMILES CC(C)C[C@H]1NC(=O)[C@H]([C@@H](C)O)NC(=O)[C@@H](C)NC(=O)[C@H](CCCNC(=N)N)NC(=O)[C@@H](Cc2ccccc2)NC(=O)[C@H](Cc2cccc(F)c2)NC1=O) [CyPPS31]	199 % of DMSO

Next, values leading:

TAS-1 (percent stimulation of 20S CP)	Binder
370 % of DMSO	cyclo(T[dL]F[dF][Dap][dR]) (also: AA5 described as D-Dap in one passage, DAP in another) [CyPPS24]
238 % of DMSO	cyclo(T[dL]F[dF]R[dPra]) [CyPPS33]
109 % of DMSO	cyclo(TVF[dF]A[dR]) (SMILES CC(C)[C@@H]1NC(=O)[C@H]([C@@H](C)O)NC(=O)[C@@H](CCCNC(=N)N)NC(=O)[C@H](C)NC(=O)[C@@H](Cc2ccccc2)NC(=O)[C@H](Cc2ccccc2)NC1=O) [CyPPS27]
242 % of DMSO	cyclo(T[dL][Bpa][dF]R[dA]) (SMILES CC(C)C[C@H]1NC(=O)[C@H]([C@@H](C)O)NC(=O)[C@@H](C)NC(=O)[C@H](CCCNC(=N)N)NC(=O)[C@@H](Cc2ccccc2)NC(=O)[C@H](Cc2ccc(C(=O)c3ccccc3)cc2)NC1=O) [CyPPS32]
287 % of DMSO	cyclo(T[dL]F[dPhe(3-F)]R[dA]) (SMILES CC(C)C[C@H]1NC(=O)[C@H]([C@@H](C)O)NC(=O)[C@@H](C)NC(=O)[C@H](CCCNC(=N)N)NC(=O)[C@@H](Cc2cccc(F)c2)NC(=O)[C@H](Cc2ccccc2)NC1=O) [CyPPS19]
185 % of DMSO	cyclo(A[dA]F[dF]A[dR]) (SMILES C[C@@H]1NC(=O)[C@@H](CCCNC(=N)N)NC(=O)[C@H](C)NC(=O)[C@@H](Cc2ccccc2)NC(=O)[C@H](Cc2ccccc2)NC(=O)[C@@H](C)NC1=O) [CyPPS36]
152 % of DMSO	cyclo(T[dL]L[dF]R[dA]) (SMILES CC(C)C[C@@H]1NC(=O)[C@@H](CC(C)C)NC(=O)[C@H]([C@@H](C)O)NC(=O)[C@@H](C)NC(=O)[C@H](CCCNC(=N)N)NC(=O)[C@@H](Cc2ccccc2)NC1=O) [CyPPS29]
198 % of DMSO	cyclo(T[dL]Y[dF]R[dA]) (SMILES CC(C)C[C@H]1NC(=O)[C@H]([C@@H](C)O)NC(=O)[C@@H](C)NC(=O)[C@H](CCCNC(=N)N)NC(=O)[C@@H](Cc2ccccc2)NC(=O)[C@H](Cc2ccc(O)cc2)NC1=O) [CyPPS16]
297 % of DMSO	cyclo([dL]F[dF]K[dA]) (SMILES CC(C)C[C@H]1NC(=O)[C@@H](C)NC(=O)[C@H](CCCCN)NC(=O)[C@@H](Cc2ccccc2)NC(=O)[C@H](Cc2ccccc2)NC1=O) [CyPPS25]
178 % of DMSO	cyclo(T[dA]F[dF]R[dA]) (SMILES C[C@H]1NC(=O)[C@H](CCCNC(=N)N)NC(=O)[C@@H](Cc2ccccc2)NC(=O)[C@H](Cc2ccccc2)NC(=O)[C@@H](C)NC(=O)[C@H]([C@@H](C)O)NC1=O) [CyPPS3]
170 % of DMSO	cyclo(T[dL]F[dA]R[dA]) (SMILES CC(C)C[C@H]1NC(=O)[C@H]([C@@H](C)O)NC(=O)[C@@H](C)NC(=O)[C@H](CCCNC(=N)N)NC(=O)[C@@H](C)NC(=O)[C@H](Cc2ccccc2)NC1=O) [CyPPS5]
283 % of DMSO	cyclo(T[dL]F[dPhe(3,4-F2)]R[dA]) (SMILES CC(C)C[C@H]1NC(=O)[C@H]([C@@H](C)O)NC(=O)[C@@H](C)NC(=O)[C@H](CCCNC(=N)N)NC(=O)[C@@H](Cc2ccc(F)c(F)c2)NC(=O)[C@H](Cc2ccccc2)NC1=O) [CyPPS20]
101 % of DMSO	cyclo(T[dK]F[dF]R[dA]) (SMILES C[C@H]1NC(=O)[C@H](CCCNC(=N)N)NC(=O)[C@@H](Cc2ccccc2)NC(=O)[C@H](Cc2ccccc2)NC(=O)[C@@H](CCCCN)NC(=O)[C@H]([C@@H](C)O)NC1=O) [CyPPS11]
289 % of DMSO	cyclo(T[dV]F[dF]A[dR]) (SMILES CC(C)[C@H]1NC(=O)[C@H]([C@@H](C)O)NC(=O)[C@@H](CCCNC(=N)N)NC(=O)[C@H](C)NC(=O)[C@@H](Cc2ccccc2)NC(=O)[C@H](Cc2ccccc2)NC1=O) [CyPPS28]
298 % of DMSO	cyclo(T[dL]F[dF]R[dS]) (SMILES CC(C)C[C@H]1NC(=O)[C@H]([C@@H](C)O)NC(=O)[C@@H](CO)NC(=O)[C@H](CCCNC(=N)N)NC(=O)[C@@H](Cc2ccccc2)NC(=O)[C@H](Cc2ccccc2)NC1=O) [CyPPS22]
173 % of DMSO	cyclo(T[dD]F[dF]R[dA]) (SMILES C[C@H]1NC(=O)[C@H](CCCNC(=N)N)NC(=O)[C@@H](Cc2ccccc2)NC(=O)[C@H](Cc2ccccc2)NC(=O)[C@@H](CC(=O)O)NC(=O)[C@H]([C@@H](C)O)NC1=O) [CyPPS10]
